Test results: paper PMC9935546

Molecular target: T1, endogenous VDAC2 (voltage-dependent anion-selective channel protein 2) (human (endogenous in HONE1 and SUNE1)), P45880
T1 chain: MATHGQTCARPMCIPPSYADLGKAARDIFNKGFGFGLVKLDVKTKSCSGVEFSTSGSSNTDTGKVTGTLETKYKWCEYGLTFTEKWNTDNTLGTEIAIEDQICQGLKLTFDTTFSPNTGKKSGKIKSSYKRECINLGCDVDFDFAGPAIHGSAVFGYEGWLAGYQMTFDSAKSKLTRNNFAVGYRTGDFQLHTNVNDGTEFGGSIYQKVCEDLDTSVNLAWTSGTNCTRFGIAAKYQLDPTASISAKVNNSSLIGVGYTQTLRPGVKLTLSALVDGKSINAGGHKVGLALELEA
Experiment: cross-linking; NPC cells in PBS with 5 mM DSS, 37 °C, 30 min, quenched with 20 mM Tris-HCl; Western blot; 24 h after IR; WT and TRIM21-KO cells
Settings: remark: other sources report otherwise

B1: endogenous VDAC2 (voltage-dependent anion-selective channel protein 2), P45880 1-294 (natural protein)
chain: MATHGQTCARPMCIPPSYADLGKAARDIFNKGFGFGLVKLDVKTKSCSGVEFSTSGSSNTDTGKVTGTLETKYKWCEYGLTFTEKWNTDNTLGTEIAIEDQICQGLKLTFDTTFSPNTGKKSGKIKSSYKRECINLGCDVDFDFAGPAIHGSAVFGYEGWLAGYQMTFDSAKSKLTRNNFAVGYRTGDFQLHTNVNDGTEFGGSIYQKVCEDLDTSVNLAWTSGTNCTRFGIAAKYQLDPTASISAKVNNSSLIGVGYTQTLRPGVKLTLSALVDGKSINAGGHKVGLALELEA
B1 was tested. Which stoichiometry N did it give?
Its stoichiometry N is greater than 3.
